Publication PMC9107513

B1: SERCA3: siRNA-mediated knockdown of OGT (protein)
parent chain: MEEAHLLSAADVLRRFSVTAEGGLSLEQVTDARERYGPNELPTEEGKSLWELVVEQFEDLLVRILLLAALVSFVLAWFEEGEETTTAFVEPLVIMLILVANAIVGVWQERNAESAIEALKEYEPEMGKVIRSDRKGVQRIRARDIVPGDIVEVAVGDKVPADLRLIEIKSTTLRVDQSILTGESVSVTKHTDAIPDPRAVNQDKKNMLFSGTNIASGKALGVAVATGLQTELGKIRSQMAAVEPERTPLQRKLDEFGRQLSHAISVICVAVWVINIGHFADPAHGGSWLRGAVYYFKIAVALAVAAIPEGLPAVITTCLALGTRRMARKNAIVRSLPSVETLGCTSVICSDKTGTLTTNQMSVCRMFVVAEAEAGTCRLHEFTISGTTYTPEGEVRQGEQPVRCGQFDGLVELATICALCNDSALDYNEAKGVYEKVGEATETALTCLVEKMNVFDTDLKGLSRVERAGACNSVIKQLMRKEFTLEFSRDRKSMSVYCTPTRADPKVQGSKMFVKGAPESVIERCSSVRVGSRTAPLSTTSREHILAKIRDWGSGSDTLRCLALATRDTPPRKEDMHLDDCSRFVQYETDLTFVGCVGMLDPPRPEVAACITRCSRAGIRVVMITGDNKGTAVAICRRLGIFGDTEDVLGKAYTGREFDDLSPEQQRQACRTARCFARVEPAHKSRIVENLQSFNEITAMTGDGVNDAPALKKAEIGIAMGSGTAVAKSAAEMVLSDDNFASIVAAVEEGRAIYNNMKQFIRYLISSNVGEVVCIFLTAILGLPEALIPVQLLWVNLVTDGLPATALGFNPPDLDIMEKPPRNPREALISGWLFFRYLAIGVYVGLATVAAATWWFLYDTEGPQVTFYQLRNFLKCSEDNPLFAGIDCKVFESRFPTTMALSVLVTIEMCNALNSVSENQSLLRMPPWLNPWLLGAVVMSMALHFLILLVPPLPLIFQVTPLSGRQWGVVLQMSLPVILLDEALKYLSRNHMDEKKDLK
B2: human SERCA3: OGT knockdown (protein)
parent chain: MEAAHLLPAADVLRHFSVTAEGGLSPAQVTGARERYGPNELPSEEGKSLWELVLEQFEDLLVRILLLAALVSFVLAWFEEGEETTTAFVEPLVIMLILVANAIVGVWQERNAESAIEALKEYEPEMGKVIRSDRKGVQRIRARDIVPGDIVEVAVGDKVPADLRLIEIKSTTLRVDQSILTGESVSVTKHTEAIPDPRAVNQDKKNMLFSGTNITSGKAVGVAVATGLHTELGKIRSQMAAVEPERTPLQRKLDEFGRQLSHAISVICVAVWVINIGHFADPAHGGSWLRGAVYYFKIAVALAVAAIPEGLPAVITTCLALGTRRMARKNAIVRSLPSVETLGCTSVICSDKTGTLTTNQMSVCRMFVVAEADAGSCLLHEFTISGTTYTPEGEVRQGDQPVRCGQFDGLVELATICALCNDSALDYNEAKGVYEKVGEATETALTCLVEKMNVFDTDLQALSRVERAGACNTVIKQLMRKEFTLEFSRDRKSMSVYCTPTRPHPTGQGSKMFVKGAPESVIERCSSVRVGSRTAPLTPTSREQILAKIRDWGSGSDTLRCLALATRDAPPRKEDMELDDCSKFVQYETDLTFVGCVGMLDPPRPEVAACITRCYQAGIRVVMITGDNKGTAVAICRRLGIFGDTEDVAGKAYTGREFDDLSPEQQRQACRTARCFARVEPAHKSRIVENLQSFNEITAMTGDGVNDAPALKKAEIGIAMGSGTAVAKSAAEMVLSDDNFASIVAAVEEGRAIYSNMKQFIRYLISSNVGEVVCIFLTAILGLPEALIPVQLLWVNLVTDGLPATALGFNPPDLDIMEKLPRSPREALISGWLFFRYLAIGVYVGLATVAAATWWFVYDAEGPHINFYQLRNFLKCSEDNPLFAGIDCEVFESRFPTTMALSVLVTIEMCNALNSVSENQSLLRMPPWMNPWLLVAVAMSMALHFLILLVPPLPLIFQVTPLSGRQWVVVLQISLPVILLDEALKYLSRNHMHEEMSQK

How the values were obtained:
[1] = western blot, endogenous SERCA3, C2C12 myotubes ± MG-132; conditions: glycan lost; control: vector / control siRNA
[2] = western blot, FLAG-tagged wild-type SERCA3 in C2C12; conditions: glycan lost; control: vector / control siRNA

Row | Protein | expression_or_secretion [1] | expression_or_secretion [2]
1 | B1 | decreases | 
2 | B2 |  | decreases
